Positions count from the first letter of the chain named.
Key:
[1] = target: Escherichia coli Release Factor 1 (RF1), wild type
[2] = target: T1, RF1 variant A-17 (N296K/L297R/L298K)
T1 chain: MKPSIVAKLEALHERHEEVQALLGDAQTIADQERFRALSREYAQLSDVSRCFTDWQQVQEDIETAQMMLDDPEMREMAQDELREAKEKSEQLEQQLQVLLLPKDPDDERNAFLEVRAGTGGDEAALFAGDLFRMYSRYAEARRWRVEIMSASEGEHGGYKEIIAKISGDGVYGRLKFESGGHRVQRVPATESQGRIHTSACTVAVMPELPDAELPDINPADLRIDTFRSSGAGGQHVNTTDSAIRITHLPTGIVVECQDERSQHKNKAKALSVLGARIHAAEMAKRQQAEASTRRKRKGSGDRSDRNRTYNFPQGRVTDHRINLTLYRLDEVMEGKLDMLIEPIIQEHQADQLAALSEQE

[3] = target: T2, RF1 variant A-18 (N296K/L297R/L298R)
T2 chain: T1 chain with K298R

[4] = target: RF1 variant A-13 (N296K/L297R)

B1: Escherichia coli Outer Membrane Protein T1 (OmpT1) (protein)
chain: STETLSFTPDNINADISLGTLSGKTKERVYLAEEGGRKVSQLDWKFNNAAIIKGAINWDLMPQISIGAAGWTTLGSRGGNMVDQDWMDSSNPGTWTDESRHPDTQLNYANEFDLNIKGWLLNEPNYRLGLMAGYQESRYSFTARGGSYIYSSEEGFRDDIGSFPNGERAIGYKQRFKMPYIGLTGSYRYEDFELGGTFKYSGWVESSDNDEHYDPGKRITYRSKVKDQNYYSVAVNAGYYVTPNAKVYVEGAWNRVTNKKGNTSLYDHNNNTSDYSKNGAGIENYNFITTAGLKYTF
cleavage in lysed strain SBJY001, 0, 1, 2 and 3 hours (Western blot) [1]: cleavage of unmodified, wild-type RF1 by strain SBJY001 was not detected over the same time periods | cleavage in lysed recombinant strain, 0, 1, 2 and 3 hours (Western blot) [2]: the modified RF1 protein variants were efficiently cleaved at all time points tested by the cell-free extract, as determined by Western blot analysis (data not shown) | cleavage in lysed recombinant strain, 0, 1, 2 and 3 hours (Western blot) [3]: the modified RF1 protein variants were efficiently cleaved at all time points tested by the cell-free extract, as determined by Western blot analysis (data not shown) | cleavage in lysed recombinant strain, 0, 1, 2 and 3 hours (Western blot) [4]: the modified RF1 protein variants were efficiently cleaved at all time points tested by the cell-free extract, as determined by Western blot analysis (data not shown)
